According to patent US20240376214A1, “ANTI-C-MET ANTIBODIES AND ANTIBODY-DRUG CONJUGATES” (BYONDIS B.V., priority 2021, published 2024):
Changes are numbered by the printed parent chain. In names and notes the source's numbering stands. One block for each molecule: values may come before it.

Tests used:
[1] = target: T1, human c-Met (HGFR), full length, on the cell surface (human, UniProt P08581 25-1390); assay: flow cytometry on MKN45, NCI-H596 and PC-3 cells
T1 construct: Endogenous c-Met on human tumor cell lines MKN45, NCI-H596, PC-3 and HepG2; also called hepatocyte growth factor receptor; mesenchymal-epithelial transition factor
Experimental: (§1) Cellular binding of the 14 wild-type chimeric and the 14 HC-41C chimeric anti-c-Met antibodies was studied in human c-Met-positive tumor cell lines MKN45, NCI-H596 and PC-3, rhesus c-Met-positive tumor cell line 4 MBr-5, and human c-Met-negative tumor cell line MDA-MB-175-VII. Cells were used around 90% of confluence at the time of an assay, detached with Trypsin-Versene (EDTA) (Lonza) for 5-10 minutes, washed and adjusted to a concentration of 1×10⁶ cells/mL in ice-cold FACS buffer (PBS 1×, 0.1% v/w BSA, 0.02% v/v sodium azide (NaN₃)). Staining was performed in 96-well round-bottomed microtiter plates using ice-cold reagents/solutions at 4° C. to prevent the modulation and internalization of surface antigens. 100,000 cells/well were added to 96-well plates (100 μL/well) and centrifuged at 300×g for 3 minutes. In case of pre-incubation with HGF (paracrine cell lines only), the cells were resuspended in 50 ng/mL recombinant human HGF in FACS buffer (50 μL/well) and incubated for 30 minutes at 4° C., followed by two wash steps with 150 μL FACS buffer. Supernatant was discarded and cells were stained for 30 minutes with 50 μL of each antibody. Serial dilutions were made in ice-cold FACS buffer. Cells were washed twice by centrifugation at 300×g for 3 minutes and resuspended in 50 μL 6000-times diluted secondary F(ab′)₂ goat anti-human IgG (Fc fragment specific) antibody APC-conjugated (Jackson ImmunoResearch). Following a 30-minute incubation on ice, cells were washed again 2 times and resuspended in 150 μL ice-cold FACS buffer for FACS analysis. For analysis of the data, the Median Fluorescence Intensity (MFI) values were obtained.

c-Met = target: T2, c-Met (Homo sapiens, UniProt P08581, DEL964-1010); assay: Functionality of chimeric antibodies, stimulation of proliferation experiment in NCI-H596 cells; type: cell-based
T2 construct: endogenous in cells; host or cells: NCI-H596
Description: From this perspective, although all three wt/41C chimeric mAbs were humanized and studied in further experiments, wt/41C-chi-mAb3 is the most preferred chimeric anti-c-Met antibody to further develop into an ADC for treatment of a cancer indication.

[2] = target: T1, human c-Met (HGFR), full length, on the …; assay: flow cytometry, NCI-H596 cells; EC50 with 50 ng/mL HGF against EC50 without HGF
Experimental: as §1, with “in total 75 humanized” for “14 wild-type chimeric and the 14 HC-41C chimeric”, “antibodies (originating from the three selected chimeric antibodies)” for “antibodies”, “HGF,” for “HGF (paracrine cell lines only),”

[3] = target: T3, rhesus c-Met on 4MBr-5 cells (rhesus, UniProt F7H1K4 25-1381, Natural c-Met is cleaved at the furin site (KRKKR/S) into disulphide-linked alpha and beta subunits; given here as one mature polypeptide.); assay: flow cytometry, 4MBr-5 cells, without HGF
T3 construct: also called rhesus c-Met antigen
Experimental: as §1, with “in total 75 humanized” for “14 wild-type chimeric and the 14 HC-41C chimeric”, “antibodies (originating from the three selected chimeric antibodies)” for “antibodies”, “HGF,” for “HGF (paracrine cell lines only),”

[4] = target: T1, human c-Met (HGFR), full length, on the …; assay: flow cytometry, NCI-H596 cells pre-incubated with 50 ng/mL HGF
Experimental: as §1, with “in total 75 humanized” for “14 wild-type chimeric and the 14 HC-41C chimeric”, “antibodies (originating from the three selected chimeric antibodies)” for “antibodies”, “HGF,” for “HGF (paracrine cell lines only),”

[5] = target: T1, human c-Met (HGFR), full length, on the …; assay: flow cytometry, MKN45 cells, without HGF
Experimental: as §1, with “in total 75 humanized” for “14 wild-type chimeric and the 14 HC-41C chimeric”, “antibodies (originating from the three selected chimeric antibodies)” for “antibodies”, “HGF,” for “HGF (paracrine cell lines only),”

[6] = target: T3, rhesus c-Met on 4MBr-5 cells; assay: flow cytometry, 4MBr-5 cells pre-incubated with 50 ng/mL HGF
Experimental: as §1, with “in total 75 humanized” for “14 wild-type chimeric and the 14 HC-41C chimeric”, “antibodies (originating from the three selected chimeric antibodies)” for “antibodies”, “HGF,” for “HGF (paracrine cell lines only),”

[7] = target: T3, rhesus c-Met on 4MBr-5 cells; assay: flow cytometry, 4MBr-5 cells; EC50 with 50 ng/mL HGF against EC50 without HGF
Experimental: as §1, with “in total 75 humanized” for “14 wild-type chimeric and the 14 HC-41C chimeric”, “antibodies (originating from the three selected chimeric antibodies)” for “antibodies”, “HGF,” for “HGF (paracrine cell lines only),”

[8] = target: T1, human c-Met (HGFR), full length, on the …; assay: flow cytometry, PC-3 cells pre-incubated with 50 ng/mL HGF
Experimental: as §1, with “in total 75 humanized” for “14 wild-type chimeric and the 14 HC-41C chimeric”, “antibodies (originating from the three selected chimeric antibodies)” for “antibodies”, “HGF,” for “HGF (paracrine cell lines only),”

[9] = target: T1, human c-Met (HGFR), full length, on the …; assay: flow cytometry, PC-3 cells; EC50 with 50 ng/mL HGF against EC50 without HGF
Experimental: as §1, with “in total 75 humanized” for “14 wild-type chimeric and the 14 HC-41C chimeric”, “antibodies (originating from the three selected chimeric antibodies)” for “antibodies”, “HGF,” for “HGF (paracrine cell lines only),”

[10] = target: T1, human c-Met (HGFR), full length, on the …; assay: flow cytometry, NCI-H596 cells, without HGF
Experimental: as §1, with “in total 75 humanized” for “14 wild-type chimeric and the 14 HC-41C chimeric”, “antibodies (originating from the three selected chimeric antibodies)” for “antibodies”, “HGF,” for “HGF (paracrine cell lines only),”

[11] = target: T1, human c-Met (HGFR), full length, on the …; assay: flow cytometry, PC-3 cells, without HGF
Experimental: as §1, with “in total 75 humanized” for “14 wild-type chimeric and the 14 HC-41C chimeric”, “antibodies (originating from the three selected chimeric antibodies)” for “antibodies”, “HGF,” for “HGF (paracrine cell lines only),”

T3 sequence (F7H1K4 entry or part of it limits assumed): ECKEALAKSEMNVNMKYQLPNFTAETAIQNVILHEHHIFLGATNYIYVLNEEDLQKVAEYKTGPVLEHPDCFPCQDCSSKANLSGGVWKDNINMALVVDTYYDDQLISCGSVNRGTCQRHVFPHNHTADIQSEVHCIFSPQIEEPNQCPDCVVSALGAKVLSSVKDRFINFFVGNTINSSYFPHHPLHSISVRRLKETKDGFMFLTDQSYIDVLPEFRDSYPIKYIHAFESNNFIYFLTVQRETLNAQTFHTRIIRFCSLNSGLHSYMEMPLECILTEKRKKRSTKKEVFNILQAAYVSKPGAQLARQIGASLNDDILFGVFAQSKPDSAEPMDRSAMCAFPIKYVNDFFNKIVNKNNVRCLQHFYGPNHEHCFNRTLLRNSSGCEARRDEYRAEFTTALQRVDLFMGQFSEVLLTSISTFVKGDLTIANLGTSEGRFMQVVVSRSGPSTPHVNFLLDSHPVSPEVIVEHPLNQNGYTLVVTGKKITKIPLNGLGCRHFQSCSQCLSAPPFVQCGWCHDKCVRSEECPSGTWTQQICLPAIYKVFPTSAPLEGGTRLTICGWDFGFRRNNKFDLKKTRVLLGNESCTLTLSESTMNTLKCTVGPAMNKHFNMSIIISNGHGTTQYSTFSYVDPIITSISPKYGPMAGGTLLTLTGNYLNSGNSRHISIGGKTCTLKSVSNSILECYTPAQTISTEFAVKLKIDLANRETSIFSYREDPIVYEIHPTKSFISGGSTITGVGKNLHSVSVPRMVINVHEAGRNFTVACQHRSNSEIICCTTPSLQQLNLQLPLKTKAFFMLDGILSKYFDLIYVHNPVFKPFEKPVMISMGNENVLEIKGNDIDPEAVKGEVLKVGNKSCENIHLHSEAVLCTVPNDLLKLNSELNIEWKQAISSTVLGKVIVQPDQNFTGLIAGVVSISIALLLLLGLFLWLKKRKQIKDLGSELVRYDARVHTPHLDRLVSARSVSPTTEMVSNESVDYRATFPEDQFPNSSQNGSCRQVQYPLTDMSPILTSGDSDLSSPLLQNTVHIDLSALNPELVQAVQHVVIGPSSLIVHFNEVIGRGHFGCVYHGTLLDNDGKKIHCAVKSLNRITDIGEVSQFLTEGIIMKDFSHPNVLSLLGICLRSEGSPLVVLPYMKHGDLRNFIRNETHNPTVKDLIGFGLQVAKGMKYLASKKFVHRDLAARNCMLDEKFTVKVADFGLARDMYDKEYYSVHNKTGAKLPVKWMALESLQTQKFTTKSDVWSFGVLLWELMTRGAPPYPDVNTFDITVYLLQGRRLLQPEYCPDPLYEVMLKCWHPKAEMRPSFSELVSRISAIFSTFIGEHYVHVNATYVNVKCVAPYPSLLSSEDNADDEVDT

B1: wt-chi-mAb1 (antibody, human IgG1, kappa, V domains shown)
VH: EVQLQQSGPELLKPGASVKMSCKASGYIFTDYFMNWVKQSHGKSLEWIGRVNPKNGDITYNQKFRGKATLTVDKSLTTAYMQLNSLTSEDSAVYFCAYDGYYDGMDFWGQGTSVTVSS
VL: ENVLTQSPAIMSASPGEKVTMTCRANSSVSSNFLHWYQQKSGASPKLWISSTSNLAFGVPPRFSGSGSGTSYSLTISSVEAEDAATYYCHQYSGHPFTFGSGTKLEIKR
notes: Mouse/human chimeric IgG1 kappa; also called wild-type chimeric antibody mAb1
binding result [1]: binds

B3: wt-chi-mAb1: wild-type chimeric anti-c-Met IgG1 antibody, VH SEQ ID NO:1, VL SEQ ID NO:2 (antibody, V domains shown)
VH: B1 VH
VL: ENVLTQSPAIMSASPGEKVTMTCRANSSVSSNFLHWYQQKSGASPKLWISSTSNLAFGVPPRFSGSGSGTSYSLTISSVEAEDAATYYCHQYSGHPFTFGSGTKLEIK
modifications: human IgG1 constant regions; HCVR; LCVR
Functionality (c-Met): Partial agonist

B5: wt-chi-mAb2 (antibody, human IgG1, kappa, V domains shown)
VH: QVQLQQSGAELVRPGASVKLSCKASGYVFPDYEMHWVKQTPVHGLEWIGAFDPETGDTTYNQNFKGKATLTADKASSTAYMDLRSLTSGDSAVYYCARDYKYLYYYAMDNWGQGTSVTVSS
VL: QIVLTQSPAIMSASLGERVTMTCTASSSITSSYLHWYQQKPGSSPKLWIYSTTNLASGVPGRFSGSGSGTSFSLTISSMEAEDAATYYCHQYRRSPLTFGAGTKLELKR
notes: Mouse/human chimeric IgG1 kappa; also called wild-type chimeric antibody mAb2
binding result [1]: binds

B9: wt-chi-mAb3 (antibody, human IgG1, kappa, V domains shown)
VH: QIQLQQSGPELVKPGASVKISCKASGYTFTDYYLNWVKQRPGQGLEWIGLIFPGNDKTEYSEKFKGKATLTVDTSSSTAYIQLSRLSSEDSAIYFCSGGDYGGFVYWGQGTLVTVSS
VL: DIQMTQSPTSLSASVGETVTITCGASENIYGALNWYQRKQGKSPQLLIYGATNLADGMSSRFSGSGSGRQFSLKINSLHPDDVATYFCQNVLSSPLTFGSGTKLEIKR
notes: Mouse/human chimeric IgG1 kappa; also called wild-type chimeric antibody mAb3
binding result [1]: binds

B10: wt-chi-mAb3: wild-type chimeric anti-c-Met IgG1 antibody, VH SEQ ID NO:5, VL SEQ ID NO:6 (antibody, V domains shown)
VH: B9 VH
VL: DIQMTQSPTSLSASVGETVTITCGASENIYGALNWYQRKQGKSPQLLIYGATNLADGMSSRFSGSGSGRQFSLKINSLHPDDVATYFCQNVLSSPLTFGSGTKLEIK
modifications: human IgG1 constant regions; HCVR; LCVR
Functionality (c-Met): Neutral

B11: 41C-chi-mAb3: HC-41C chimeric anti-c-Met IgG1 antibody, VH SEQ ID NO:9, VL SEQ ID NO:6 (antibody, V domains shown)
VH: B9 VH with P41C
VL: B10 VL
modifications: IgG1 constant regions; HCVR - VH P41C; LCVR
Functionality (c-Met): Neutral

B12: 41C-chi-mAb3 (antibody, human IgG1, kappa, V domains shown)
VH: B9 VH with P41C
VL: B9 VL
notes: Chimeric IgG1 kappa with an engineered cysteine at HC position 41 (Kabat); also called HC-41C chimeric antibody mAb3
binding result [1]: binds

Results, then the molecule that gave them:

Functionality (c-Met): Partial agonist
B2: 41C-chi-mAb1: HC-41C chimeric anti-c-Met IgG1 antibody, VH SEQ ID NO:7, VL SEQ ID NO:2 (antibody, V domains shown)
VH: B1 VH with H41C
VL: B3 VL
modifications: IgG1 constant regions; HCVR - VH H41C; LCVR

binding result [1]: binds
B4: 41C-chi-mAb1 (antibody, human IgG1, kappa, V domains shown)
VH: B1 VH with H41C
VL: B1 VL
notes: Chimeric IgG1 kappa with an engineered cysteine at HC position 41 (Kabat); also called HC-41C chimeric antibody mAb1

Functionality (c-Met): Partial agonist
B6: 41C-chi-mAb2: HC-41C chimeric anti-c-Met IgG1 antibody, VH SEQ ID NO:8, VL SEQ ID NO:4 (antibody, V domains shown)
VH: B5 VH with P41C
VL: QIVLTQSPAIMSASLGERVTMTCTASSSITSSYLHWYQQKPGSSPKLWIYSTTNLASGVPGRFSGSGSGTSFSLTISSMEAEDAATYYCHQYRRSPLTFGAGTKLELK
modifications: IgG1 constant regions; HCVR - VH P41C; LCVR

binding result [1]: binds
B7: 41C-chi-mAb2 (antibody, human IgG1, kappa, V domains shown)
VH: B5 VH with P41C
VL: B5 VL
notes: Chimeric IgG1 kappa with an engineered cysteine at HC position 41 (Kabat); also called HC-41C chimeric antibody mAb2

Fold shift (HGF) [2]: 7.5 fold | EC50 [3]: 0.03 µg/mL | EC50 [4]: 0.15 µg/mL | EC50 [5]: 0.07 µg/mL | EC50 [6]: 0.05 µg/mL | Fold shift (HGF) [7]: 1.6 fold | EC50 [8]: 0.08 µg/mL | Fold shift (HGF) [9]: 2.7 fold | EC50 [10]: 0.02 µg/mL | EC50 [11]: 0.03 µg/mL
B8: mAb3d (antibody, human IgG1, kappa, V domains shown)
VH: QVQLQESGAEVKKPGASVKVSCKASGYTFTDYYLNWVRQACGQGLEWMGLIFPGNDKTEYSEKFKGRVTMTRDTSTSTVYMELSSLRSEDTAVYYCSGGDYGGFVYWGQGTLVTVSS
VL: DIQLTQSPSSLSASVGDRVTITCGASENIYGALNWYQQKPGKAPKLLIYGATNLADGVPSRFSGSGSGTDFTLTISSLQPEDFATYYCQNVLSSPLTFGPGTKVDIKR
notes: Humanized IgG1 kappa, HC-41C, from wt/41C-chi-mAb3; also called humanized HC-41C antibody mAb3d
